# Measurements taken from publication PMC7888922.
# pKd: −log10 of the molar value.
# Legend:
# [1] = biological target: sACE2_(2).v2.4-IgG1 (human) (UniProt Q9BYF1); experiment: BLI
# [2] = biological target: WT sACE2_(2)-IgG1 (human) (UniProt Q9BYF1); experiment: BLI
Substance,pKd [1],koff [1],kon [1],pKd [2],koff [2],kon [2]
SARS-CoV-2 RBD-8h (from UniProt P0DTC2 333-529) (domain or fragment),9.40,0.00028 s⁻¹,660000 M⁻¹ s⁻¹,–,–,–
RsSHC014 RBD-8h (domain or fragment),8.89,0.002 s⁻¹,1.6e+06 M⁻¹ s⁻¹,7.54,0.026 s⁻¹,880000 M⁻¹ s⁻¹
